Laboratory results: patent US20080044414A1 (published 2008)
Where a chain is given by its changes, count along the chain named. “And” between values parts separate entries of the source, which are not always exact repeats. Identical values can stand only once. Like-named read-outs stand apart in the source and are kept apart here. Blank lines part the entries; values can stand above or below the binder they belong to.

Tests used:
human IL-1β [1] = target: T1, human IL-1β (human, UniProt P01584 117-269); test: cell-based or functional assay
human IL-1β [2] = target: T1, human IL-1β; test: cell-based or functional assay; remark: listed apart in the source
human IL-1β [3] = target: T1, human IL-1β; test: KinExA kinetic exclusion assay
Description: KD values represent the binding dissociation constants for the respective antibody-IL-1β complexes. KD was calculated as the ratio of “off rate” (rate of dissociation for the antibody-IL-1β complex) to “on rate” (rate of association for the antibody-IL-1β complex).

human IL-1β [4] = target: T1, human IL-1β; test: KinExA kinetic exclusion assay; remark: listed apart in the source
Source text: The KINEXA™ device performs a kinetic exclusion assay, and fits the data to various theoretical curves and thus determines KD as well as other properties, such as 95% confidence intervals for KD. The KINEXA™ device is generally more sensitive than other devices (e.g., a BiaCore device) for analysis of affinity characteristics such as dissociation constants and off-rates.

human IL-1β [5] = target: T1, human IL-1β; test: cell-based or functional assay; remark: listed apart in the source
rhesus macaque IL-1β = target: T2, rhesus macaque IL-1β (rhesus macaque, UniProt P48090 117-269); test: cell-based or functional assay
T2 sequence (looked up): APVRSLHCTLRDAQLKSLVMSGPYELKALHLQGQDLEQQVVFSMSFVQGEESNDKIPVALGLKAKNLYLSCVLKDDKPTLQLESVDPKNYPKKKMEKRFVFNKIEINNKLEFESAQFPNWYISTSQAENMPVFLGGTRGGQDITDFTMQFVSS

[6] = target: T3, soluble IL-1 receptor type I (IL-1 sRI) (UniProt P14778 18-336); test: Biacore, AB7 immobilized on CM-5 chip, IL-1 sRI injected
T3 construct: extracellular domain; also called IL-1RI
T3 sequence (looked up): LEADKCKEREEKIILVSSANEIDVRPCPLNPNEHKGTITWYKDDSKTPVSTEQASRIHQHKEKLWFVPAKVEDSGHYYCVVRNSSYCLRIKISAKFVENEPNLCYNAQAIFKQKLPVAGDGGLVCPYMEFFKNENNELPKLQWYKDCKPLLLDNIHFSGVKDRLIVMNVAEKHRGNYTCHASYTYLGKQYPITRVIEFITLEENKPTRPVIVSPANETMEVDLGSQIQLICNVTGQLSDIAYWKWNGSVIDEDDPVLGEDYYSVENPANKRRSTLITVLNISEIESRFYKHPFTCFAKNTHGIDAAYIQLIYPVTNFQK
Description: Using HBS-EP (Biacore®, Inc.) as running buffer, the temperature was set to 25° C., the flow rate was set to 10 μL/min, and the flow path was directed to flow cell 2 only. 135 μL of each of NHS and ECD solutions (Biacore®, Inc.) were mixed, and 70 μL of the NHS/ECD solution was immediately injected in the flow path. […] To prepare a reference surface, the flow path was changed to flow cell 1 only. 135 μL of each of NHS and ECD solutions (Biacore®, Inc.) were mixed, and 70 μL of the NHS/ECD solution was immediately injected in the flow path, followed by 70 μL 1M Ethanolamine (Biacore®, Inc.).
The flow rate was set to 10 μL/min. The flow path for the Biacore® instrument was set to flow cells 1 and 2, and reference subtraction of flowcell 2 from flowcell 1 was used to determine a response differential.

guinea pig IL-1β = target: T4, guinea pig IL-1β (guinea pig, UniProt Q9WVG1 115-266, limits assumed); test: immunoprecipitation with AB7 and protein A-Sepharose from PBMC supernatant, Western blot with AB7
T4 sequence (looked up): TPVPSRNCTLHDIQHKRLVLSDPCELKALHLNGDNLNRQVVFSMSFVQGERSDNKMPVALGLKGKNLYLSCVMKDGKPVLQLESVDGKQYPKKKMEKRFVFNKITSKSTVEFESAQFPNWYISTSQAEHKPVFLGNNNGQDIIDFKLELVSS
Description: (§1) Fresh heparanized whole blood from rhesus macaque, cynomolgus monkey, dog, guinea pig and rabbit was obtained from Charles River Labs. The whole blood was separated by Ficoll density gradient centrifugation and peripheral blood mononuclear cells (PBMC's) were isolated. For each species' PBMC, 2.5×10⁵ cells/ml were incubated in peripheral RPMI media with and without 50 ng/ml Lipopolysaccharide LPS (E. Coli 055:B5), and supernatants were collected at 24 hours post-stimulation. LPS is intended to stimulate the production of IL-1β by the PBMC's. […] Human IL-1β (Peprotech) was spiked into RPMI and run as immunoprecipliation/Western blot controls. After centrifugation and washing of the Protein A-Sepharose beads, all samples were loaded onto a SDS-PAGE gel and run at 120V for 1 hour. […] A secondary goat anti-human IgG antibody conjugated with horseradish peroxidase (HRP) was added following wash steps and detection was with one step tetramethyl benzidine (TMB) solution.

dog IL-1β = target: T5, dog IL-1β (dog, UniProt Q28292 115-266); test: immunoprecipitation with AB7 from LPS-stimulated PBMC supernatant, Western blot with AB7 (FIG. 16)
T5 sequence (looked up): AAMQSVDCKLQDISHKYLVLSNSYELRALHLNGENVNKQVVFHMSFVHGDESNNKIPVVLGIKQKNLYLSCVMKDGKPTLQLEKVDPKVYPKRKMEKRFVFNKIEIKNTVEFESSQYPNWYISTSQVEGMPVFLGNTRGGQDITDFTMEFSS
Description: as §1

rabbit IL-1β = target: T6, rabbit IL-1β (rabbit, UniProt P14628 117-268); test: as above
T6 sequence (looked up): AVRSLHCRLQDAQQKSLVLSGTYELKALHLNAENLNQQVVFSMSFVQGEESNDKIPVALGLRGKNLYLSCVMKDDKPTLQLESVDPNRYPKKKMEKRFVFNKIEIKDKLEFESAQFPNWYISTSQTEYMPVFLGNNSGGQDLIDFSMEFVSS
Description: as §1

B1: AB5 (antibody, V domains shown)
VH: QVTLKESGPGILKPSQTLSLTCSFSGFSLSTSGMGVGWIRQPSGKGLEWLAHIWWDGDESYNPSLKTQLTISKDTSRNQVFLKITSVDTVDTATYFCARNRYDPPWFVDWGQGTLVTVSS
VL: DIQMTQTTSSLSASLGDRVTISCRASQDISNYLSWYQQKPDGTVKLLIYYTSKLHSGVPSRFSGSGSGTDYSLTISNLEQEDIATYFCLQGKMLPWTFGGGTKLEIK
notes: also called AB5 (invention)
IC50, inhibition of IL-1β stimulated release of IL-6 from human MRC5 fibroblasts (human IL-1β [1]): 0.014 nM
IC50, inhibition of IL-1β stimulated release of IL-6 from human fibroblasts (human IL-1β [2]): 0.0049 nM
Kd (human IL-1β [3]): 0.000261 nM
Kd (human IL-1β [4]): 0.00024 nM

B3: AB2 (antibody, V domains shown)
VH: B1 VH with N100V
VL: B1 VL
IC50, inhibition of IL-1β stimulated release of IL-6 from human fibroblasts (FIG. 10) (human IL-1β [5]): 0.076 nM

B5: AB1 (antibody, V domains shown)
VH: B1 VH with N100A
VL: B1 VL
notes: also called AB1 (invention)
IC50, inhibition of IL-1β stimulated release of IL-6 from human fibroblasts (FIG. 10) (human IL-1β [5]): 0.029 nM
IC50 of an individual assay, IL-6 release from human fibroblasts (human IL-1β [5]): 0.035 nM and 0.03 nM and 0.052 nM
mean IC50, inhibition of IL-1β stimulated release of IL-6 from human fibroblasts (human IL-1β [5]): 0.0667 nM
IC50, inhibition of IL-1β stimulated release of IL-6 from human MRC5 fibroblasts (human IL-1β [1]): 0.15 nM
Kd (human IL-1β [3]): 0.0186 nM

More lines, now with the values ahead:

IC50, inhibition of IL-1β stimulated release of IL-6 from human fibroblasts (FIG. 10) (human IL-1β [5]): 0.214 nM
B2: AB3 (antibody, V domains shown)
VH: B1 VH with N100F
VL: B1 VL

IC50 of an individual assay, IL-6 release from human fibroblasts (human IL-1β [5]): 0.005 nM and 0.0049 nM
mean IC50, inhibition of IL-1β stimulated release of IL-6 from human fibroblasts (human IL-1β [5]): 0.0089 nM
IC50, inhibition of IL-1β stimulated release of IL-6 from human MRC5 fibroblasts (human IL-1β [1]): 0.017 nM
Kd (human IL-1β [3]): 0.00306 nM
B4: AB-control (antibody, V domains shown)
VH: B1 VH with Q68R, D74N, S86T
VL: B1 VL with S72F
notes: must be checked against the listing

mean IC50, inhibition of IL-1β stimulated proliferation of D10.G4.1 cells (10 pg/ml recombinant rhesus IL-1β) (rhesus macaque IL-1β): 0.0027 nM
binding result [6]: no binding (tested: 10 ug/mL)
binding result (guinea pig IL-1β): no binding
binding result (dog IL-1β): binds
binding result (rabbit IL-1β): binds
B6: AB7 (antibody, V domains shown)
VH: QVQLQESGPGLVKPSQTLSLTCSFSGFSLSTSGMGVGWIRQPSGKGLEWLAHIWWDGDESYNPSLKSRLTISKDTSKNQVSLKITSVTAADTAVYFCARNRYDPPWFVDWGQGTLVTVSS
VL: DIQMTQSTSSLSASVGDRVTITCRASQDISNYLSWYQQKPGKAVKLLIYYTSKLHSGVPSRFSGSGSGTDYTLTISSLQQEDFATYFCLQGKMLPWTFGQGTKLEIK
notes: Human engineered antibody
